Data published in the nanobody polyreactivity screen of Harvey et al. (2022).

Assay: yeast display, Sf9 membrane polyspecificity reagent, FACS + sequencing; frameworks hold sequencing errors
Outline: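 Sorting gates, low and high (top ~1%), were placed on anti-HA fluorescence to track expression and on streptavidin fluorescence to track reagent binding. A clone's polyreactivity label is taken from the gate it came out of. The reagent was 10% biotinylated, detergent-solubilized Sf9 membrane, applied for 1 hour at 4 °C to galactose-induced yeast display cells.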

Row | Sequence | polyreactivity (PSR sort gate)
1 | QVQLVESGGGLVQAGGSLRLSCAASGRIFGAYARGWYRQAPGKERELVAAITSAGSTHYADSVKGRFTISRDNAKNTVYLQMNSLKPEDTAVYYCAADGIARAYVLFDAYDFLYDYWGQGTQVSVSS | low polyreactivity
2 | QVQLVESGGGLVQAGGSLRLSCAASGRIFGAYTMGWYRQAPGKERELVAAISWSGGRTYYADSVKGRFTISRDNAKNTVYLQMNSVKPEDTAVYYCAASYSGRQDRYPHYDYWGQGTQVTVSS | low polyreactivity
3 | QVQLVESGGGLVQAGGSLRLSCAASGRIFGDNAMGWYRQAPGKERELVATISRGGTTNYADSVKGRFTISRDNAKNTVYLQMNSLKPEDTAVYYCNARSGGHGYSRYQTYLRYDYWGQGTQVTVSS | low polyreactivity
4 | QVQLVESGGGLVQAGGSLRLSCAASGRIFGDYAMGWYRQAPGKERELVAAINSSGTSTNYADSVKGRFTISRDNAKNTVYLQMNSLKPEDTAVYYCNAEGTYRPDYDSWGQGTQVTVSS | low polyreactivity
5 | QVQLVESGGGLVQAGGSLRLSCAASGRIFGDYAMGWYRQAPGKERELVAAISWSDGSTYYADSVKGRFTISRDNAKNTVYLQMNSLKPEDTAVYYCAAYGWGYRYVDVVVSDFYYWGQGTQVTVSS | low polyreactivity
6 | QVQLVESGGGLVQAGGSLRLSCAASGRIFGFNAMGWYRQAPGKERELVAGITDSSGRTNYADSVKGRFTISRDNAKNTVYLQMNSLKPEDTAVYYCAKDGLVIPADGSDYWGQGTQVTVSS | low polyreactivity
7 | QVQLVESGGGLVQAGGSLRLSCAASGRIFGFNTMGWYRQAPGKERELVAAITSRDGRTYYADSVKGRFTISRDNAKNTVYLQMNSLKPEDTAVYYCATQYRWYAESHGLVTSVIMYSWGQGTQVTVSS | low polyreactivity
8 | QVQLVESGGGLVQAGGSLRLSCAASGRIFGFYALGWYRQAPGKERELVAAITVSGSSTRYADSVKGRFTISRDNAKNTVYLQMNSLKPDDTAVYYCAASVGQFRYRYKWTFGNARMYYWGQGTQVTVSS | high polyreactivity
9 | QVQLVESGGGLVQAGGSLRLSCAASGRIFGFYAMGWYRQAPGKERELVAVITYRDGRTYYADSVKGRFTISRDNAKNTVYLQMNSLKPQDTAVYYCAADRGVYDPGDYWGQGTQVTVSS | low polyreactivity
10 | QVQLVESGGGLVQAGGSLRLSCAASGRIFGFYGMGWYRQAPGKERELVAAITNRVGSTYYADSVKGRFTISRDNAKNTVYLHMHSLKPEDTAVYSCARRSGWWTRMDSWGQGTQVTVSS | high polyreactivity
11 | QVQLVESGGGLVQAGGSLRLSCAASGRIFGGNALGWYRQAPGYARALVAAISWIGGTTYYADSVKGRFTISRDNAKNTVYLQMNSLKPEDTAVYYCAAYRYRPHVHRYYRYDYWGQGTQVTVSS | high polyreactivity
12 | QVQLVESGGGLVQAGGSLRLSCAASGRIFGGNTMGWYRQAPGKEREFVAAITQSGTRTYYADSVKGRFTISRDNAKNTVYLQMNSLKPEDTAVYYCAAEGYWYPYDYWGQGTQVTVSS | high polyreactivity
13 | QVQLVESGGGLVQAGGSLRLSCAASGRIFGGNTMGWYRQAPGKEREFVAAITQSGTRTYYADSVKGRFTISRDNAKNTVYLQRNSLKPEDTAVDYCAAEGYWYPYDYWRQGTQVTVSS | high polyreactivity
14 | QVQLVESGGGLVQAGGSLRLSCAASGRIFGGYAMGGDRQAPGKERELVAVISGRGGSTYYADSVKGRFTISRDNAKNTVYLQMNSLKPEDTAVYYCTVYRRIQRYGPQSYDYWGQGTQVTVSS | high polyreactivity
15 | QVQLVESGGGLVQAGGSLRLSCAASGRIFGGYAMGWYRPAPGKERELVAAISWRGGTTYYADSVKGRFTISRDNAKNTVYLQMNSLKPEDTAVYYCNADVVRYRHWHRGDYWGQGTQVTVSS | low polyreactivity
16 | QVQLVESGGGLVQAGGSLRLSCAASGRIFGGYAMGWYRQAPGKERELVAAISSGGNTKYADSVKGRFTISRDNAKNTVYLQMNSLKPEDTAVYYCAAAPYARREYEYWGQVTQVTVSS | high polyreactivity
17 | QVQLVESGGGLVQAGGSLRLSCAASGRIFGGYAMGWYRQAPGKERELVAAISSSGGRTYYADSVKGRFTISRDNSKKTVYLQMNSLKPEDTAVYYCNAGAGQRVSGHSFEDWGQGTQVTVSS | high polyreactivity
18 | QVQLVESGGGLVQAGGSLRLSCAASGRIFGINAMGWYRQAPGKERELVAAINWSGGSTYYADSVKGRFTISRDNAKNTVYIQMNSLKPEDSAVYYCAAQKYKRVGYWGQGTQVTVSS | high polyreactivity
19 | QVQLVESGGGLVQAGGSLRLSCAASGRIFGIYAMGGSRQAPGKERELVASITDGTITYYADSVKGRFTISRDNAKNTVYLQMNSLKPEDTAVYYCAAGTQAHAYVVRPIEMDYWGQGTQVTVSS | low polyreactivity
20 | QVQLVESGGGLVQAGGSLRLSCAASGRIFGIYAMGWYRQAPGKERELVARITGGGSTNYADSVKARFTISRDNEKNTVYLQMNSLKPEDTAVYYCASTVRRIVGNITRYDYWGQGTQLTVSS | low polyreactivity
21 | QVQLVESGGGLVQAGGSLRLSCAASGRIFGIYAMGWYRQAPGKERELVATITDSDDSTYYADSVKGRFTISRDNAKNTVYLQMNSLKPEDTAVYYCATAFSYGGGAYDYWGQGTQVTVSS | low polyreactivity
22 | QVQLVESGGGLVQAGGSLRLSCAASGRIFGKNAMGWYRQAPGKERELVAAISSSGGSTYYADSVKGRFTISRDNAKNTVYLQMNSLKPEDTAVYYCAAGVTRGMDYWGQGTQVTVSS | high polyreactivity

Row | Sequence | polyreactivity (PSR sort gate)
23 | QVQLVESGGGLVQAGGSLRLSCAASGRIFGKNDMGWYRQAPGKETEFVATIDWSGGSTYYADSVKGRFTISRDNAKNTVYLQMNSLKPEDTAVYYCAASGWNRYLFDYWGQGTQVTVSS | low polyreactivity
24 | QVQLVESGGGLVQAGGSLRLSCAASGRIFGLNAMGWYRQAPGKEREFVAAIRWRGGSTYYADSVKGRFTISRDNAKNTVYLQMNSLKPEDTAVYYCAADRNLGVSRYGYWGQGTQVTVSS | high polyreactivity
25 | QVQLVESGGGLVQAGGSLRLSCAASGRIFGLNGMGWSRQAPGKERELVARISSVGSTYSADSVKGRFTISRDNAKNTVDLQKNSLTPEDTSVYYCNRRRSRYLPTPDRIVEYDYWGQGTQVTVSS | low polyreactivity
26 | QVQLVESGGGLVQAGGSLRLSCAASGRIFGLYAMGWYRQAPGKERELVARITRGGSTYADSVKGRFTISRDNAKNSVYLQMNSLKPEDTAVYYCNAEWIVRNSGDYEYWGQGTQVTVSS | high polyreactivity
27 | QVQLVESGGGLVQAGGSLRLSCAASGRIFGNNAMGWYRQAPGKVRELVAAIRSRGTRTYYADSVKGRFTISRDNAKNTVNLQMNSLKPEDPAVYYCATTSLTGLYDRYDYWGQGTQVTVSS | high polyreactivity
28 | QVQLVESGGGLVQAGGSLRLSCAASGRIFGNTAMGWYRQAPGKERELVAAIRSRGTRTYYADSVKGRFTISRDNAKNTVYLQMNSLKPEDTAVYYCATTSLTGRYDRYDYWGQGTQVTVSS | high polyreactivity
29 | QVQLVESGGGLVQAGGSLRLSCAASGRIFGNYAMGWYRQAPGKERELVAAISGGGSTYYADSVKGRFTISRDKAKNTVYLQMNSLKPEDTAVYYCAARFLWSVFGRKGGYWGQGTQVTVSS | low polyreactivity
30 | QVQLVESGGGLVQAGGSLRLSCAASGRIFGNYAMGWYRQAPGKERELVASISRRGGSTYYADSVKGRFTISRDNAKNTVYLQMIRLKPEDTAVYYCATLRGRLRFGYDYWGQGTQVTVSS | high polyreactivity
31 | QVQLVESGGGLVQAGGSLRLSCAASGRIFGNYYKVWFRQAPGKERDLVAAISGGGSTYYADSVKGRFTISRDNAKNTVYLQMNSLKPEDTGVYYCAARFLWSVFGRKGGYWGQGTQVTVSS | low polyreactivity
32 | QVQLVESGGGLVQAGGSLRLSCAASGRIFGPYAMGWSRQAPGKERELVATITWRTGSTYYADSVKGRFTISRDNAKNTVYLQMNSLKPEDTEVYYSAARYGRYSKAGDYWGQGTQVTVSS | high polyreactivity
33 | QVQLVESGGGLVQAGGSLRLSCAASGRIFGPYAMGWYRQAPGKERELVAAISFSGSGTYYADSVKGRFTISRDNAKNTVYFQMNSLKPEDTAVYYCAATSRKIVAYDHDYWGQGTQVTVSS | low polyreactivity
34 | QVQLVESGGGLVQAGGSLRLSCAASGRIFGPYAMGWYRQAPGKERELVAAITRGGSTSYADSVKGRFTISRDNAKNTVDLQMISLKTEDTAVDYCAADTLRWWYGFDYWGQGTQVTVSS | low polyreactivity
35 | QVQLVESGGGLVQAGGSLRLSCAASGRIFGPYTMGWYRQAPGKERELVAAIRSSGTSTYYADSVKGRFTISRDNAKNTVYLQMNSLKPEDTAVYYCNRARSSSRYDYWGQGTQVTVSS | low polyreactivity
36 | QVQLVESGGGLVQAGGSLRLSCAASGRIFGPYVMGWYRQAPGKERDFVAAISRRTGSTYYADSVKGRFTISRDNAKNTVYLQMNSLKPEDTAVYYCAATYYFSHVVGYGYWGQGTQVTVSS | high polyreactivity
37 | QVQLVESGGGLVQAGGSLRLSCAASGRIFGQNAMGWYRQAPGKERELVASITTSGSSTNYADSVKGRFTISRDNAKNTVYLQMNSLKPEDTAVYYCAADYVSPDPDELHDYSGYYYWGQGTQVTVSS | high polyreactivity
38 | QVQLVESGGGLVQAGGSLRLSCAASGRIFGRNAMGWYRQAPGKERELVAAISSGGGRTYYADSVKGRFTISRDNAKNTVYLQMNSLKPEDTSVYYCAAEDWYEYDYWGQGTQVTVSS | high polyreactivity
39 | QVQLVESGGGLVQAGGSLRLSCAASGRIFGRNAMGWYRQAPGKERELVAAISSSGGRTYYADSVKGRFSISRDNAKNTVYLQMMSLKPEDTAVYYCAAVGSLYYYRYDYWGQGTQVTVSS | high polyreactivity
40 | QVQLVESGGGLVQAGGSLRLSCAASGRIFGRNAMGWYRQAPGKERELVAAISSSGRTYYADSVKGRFTISRDNAKNTVYLQMNSLKPEDTAVYYCAAYGYSWGQGTQVTVSS | high polyreactivity
41 | QVQLVESGGGLVQAGGSLRLSCAASGRIFGRNAMGWYRQAPGKERELVASITSGGGTNYADSVKGRFTISRDNAKNTVYLQMNCLKPEDTAVYYCAAKRHLEGYSGSIGRYYYWGQGTQVTVSS | low polyreactivity
42 | QVQLVESGGGLVQAGGSLRLSCAASGRIFGRNTMGWYRQAPGKERELVAAISYSAGSTYYADSVKGRFTISRDNAKNTVYLQMNSLKPEDTAVYYCAAGYIRTTYRTNRYGYWGQGTQVTVSS | high polyreactivity
43 | QVQLVESGGGLVQAGGSLRLSCAASGRIFGRYAMGGSRQAPGKERELVAAITSSGGNTYYADSVKGRFTISRDNAKNTVYLQMNSLKPEDTAVYYCNALSARSRLQSDYWGQGTQVTVSS | high polyreactivity
